From patent US20190211111A1

Target: GCN4 peptide-fused αCD19 Fab (Rodgers et al.)
Assay: ELISA, coated GCN4 peptide-fused αCD19 Fab, detection with anti-human lambda-HRP

Substance	EC50
αGCN4-Fab (LC-G202X, HC-K129X, X=pAcF)	1 nM
αGCN4-Fab (LC-S155X, HC-K129X, X=pAcF)	1 nM
αGCN4-Fab (LC-S193X, HC-K129X, X=pAcF)	1 nM
